The results in this text go back to the supplement of paper PMC10567573.

Sequences and labels used below:
B1: WDR41 (parent)
chain: HVGELIIWDALDWTMQAYERNFWD
B2: NR2F2 (parent)
chain: NIPFFPDLQITDQVALLRLTWSEL
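Note: lentivirally expressed fusions sorted by FACS into six bins by GFP to DsRed ratio, PSI derived from sequencing read proportions per bin multiplied by bin number.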

In one data set the parent is B1. Kind of data set: protein stability index of a GFP-peptide fusion (GPS, HEK-293T) (PSI 1-6); higher = more stable. To be noted: c terminus: a fixed tail appended.
Turning to HVGELIRWDALDWTMQAYERNFWD [I7R], the protein stability index stood at 1.99.

HVGELIWWDALDWTMQAYERNFWD [I7W]: the protein stability index was determined as 2.44.

For the variant HVGELIQWDALDWTMQAYERNFWD [I7Q], the protein stability index is 2.11.

For HVGELIDWDALDWTMQAYERNFWD [I7D], the protein stability index came to 2.07.

Consider HVGELIIWDALDWTMQAYERNPWD [F22P], for which the protein stability index was found to be 1.75.

Consider HVGELIIWDALDWTMQAYERNKWD [F22K], for which the protein stability index worked out at 1.41.

As to HVGELIIWDALDWTMQAYERNEWD [F22E], the protein stability index amounted to 3.79.

Regarding HVGELIIWDALDWTMQAYERNWWD [F22W], the protein stability index was 1.74.

On to HVGELIIWDALDWTMQAYERNSWD [F22S], for which the protein stability index is 1.57.

On to HVGELIIWDALDWTMQAYEPNFWD [R20P], for which the protein stability index was found to be 2.05.

For HVGELIIWDALDWTMQAYESNFWD [R20S], the protein stability index was determined as 1.56.

HVGELIIWDALKWTMQAYERNFWD [D12K]: the protein stability index was 2.15.

For HVGELIIWDALVWTMQAYERNFWD [D12V], the protein stability index stood at 2.81.

For HVGELIIWDANDWTMQAYERNFWD [L11N], the protein stability index came out at 2.23.

For HVGELIIWDARDWTMQAYERNFWD [L11R], the protein stability index was found to be 2.83.

HVGELIIWDACDWTMQAYERNFWD [L11C]: the protein stability index stood at 2.2.

Regarding HVGELIIWDAPDWTMQAYERNFWD [L11P], the protein stability index was found to be 2.03.

As for HVGELIIWDAKDWTMQAYERNFWD [L11K], the protein stability index was 2.67.

As for HVGELIIWDALDWTMQWYERNFWD [A17W], the protein stability index is 3.37.

As for HVGELIIWDALDWTMQEYERNFWD [A17E], the protein stability index worked out at 2.26.

Regarding HVGELIIWDALDWTMQKYERNFWD [A17K], the protein stability index was 2.09.

With HVGELIIWDALDWTMQCYERNFWD [A17C], the protein stability index was 2.5.

Variants of B2 are the subject of another data set. The data set is described as above. To be noted: c terminus: a fixed tail appended.
Take NIPFFPDLQITDQVDLLRLTWSEL [A15D]: the protein stability index was 1.92.

Consider NIPFFPDPQITDQVALLRLTWSEL [L8P], for which the protein stability index came to 2.25.

Turning to NIPFFPDGQITDQVALLRLTWSEL [L8G], the protein stability index turned out to be 1.47.

NIPFFPDCQITDQVALLRLTWSEL [L8C]: the protein stability index worked out at 1.92.

With NIPFFPDHQITDQVALLRLTWSEL [L8H], the protein stability index came to 2.

For the variant NINFFPDLQITDQVALLRLTWSEL [P3N], the protein stability index turned out to be 2.28.

In the case of NIAFFPDLQITDQVALLRLTWSEL [P3A], the protein stability index worked out at 3.65.

In the case of NISFFPDLQITDQVALLRLTWSEL [P3S], the protein stability index stood at 1.41.

Turning to NIQFFPDLQITDQVALLRLTWSEL [P3Q], the protein stability index was determined as 3.08.

For NICFFPDLQITDQVALLRLTWSEL [P3C], the protein stability index worked out at 2.88.

NIPFEPDLQITDQVALLRLTWSEL [F5E]: the protein stability index was found to be 1.67.

Take NIPFSPDLQITDQVALLRLTWSEL [F5S]: the protein stability index turned out to be 2.16.

Turning to NIPFMPDLQITDQVALLRLTWSEL [F5M], the protein stability index is 1.78.

For NIPFFPDLQITDQVALLELTWSEL [R18E], the protein stability index is 2.63.

In the case of NIPFFPDLQITDQVALLALTWSEL [R18A], the protein stability index stood at 2.33.

For the variant NIPFFPDLQITDQVALLWLTWSEL [R18W], the protein stability index stood at 3.72.

On to NIPFFPDLQITDQVALLRLTWYEL [S22Y], for which the protein stability index was found to be 3.13.

For the variant NIPFFPDLQITDQVALLRLTWDEL [S22D], the protein stability index turned out to be 2.4.

NIPFFPDLQITDQVALLRLTWKEL [S22K]: the protein stability index is 1.68.

With NIPFFPDLQITDQVALLRLTWGEL [S22G], the protein stability index came to 3.17.

Take NIPFFPDLQITDQVALLRLTWREL [S22R]: the protein stability index amounted to 1.53.

Take NIPFFPDLQITDQVALLRLTWVEL [S22V]: the protein stability index amounted to 1.67.

With NIPFFPDLQILDQVALLRLTWSEL [T11L], the protein stability index came out at 4.1.

In the case of NIPFFPDLQIDDQVALLRLTWSEL [T11D], the protein stability index was 1.61.

Consider NIPFFPDLQITDQVALLRPTWSEL [L19P], for which the protein stability index was determined as 2.24.

Take NIPFFPDLQITDQVALLRDTWSEL [L19D]: the protein stability index stood at 2.28.

On to NIPFFPDLQITDQVALLRGTWSEL [L19G], for which the protein stability index was 2.35.

Consider NIPFFPDLQITDQVALLRLTRSEL [W21R], for which the protein stability index was 2.14.

In the case of NIPFFPDLQITDQVALLRLTLSEL [W21L], the protein stability index stood at 2.08.

NIPFFPDLQITDQHALLRLTWSEL [V14H]: the protein stability index was 1.81.

As for NIPFFPDLQITDQNALLRLTWSEL [V14N], the protein stability index stood at 1.89.

In the case of NPPFFPDLQITDQVALLRLTWSEL [I2P], the protein stability index is 2.9.

On to NMPFFPDLQITDQVALLRLTWSEL [I2M], for which the protein stability index worked out at 2.5.

NVPFFPDLQITDQVALLRLTWSEL [I2V]: the protein stability index was 2.03.

In the case of NWPFFPDLQITDQVALLRLTWSEL [I2W], the protein stability index amounted to 3.13.

Turning to NHPFFPDLQITDQVALLRLTWSEL [I2H], the protein stability index amounted to 2.1.

For NTPFFPDLQITDQVALLRLTWSEL [I2T], the protein stability index came to 2.01.

With NIPKFPDLQITDQVALLRLTWSEL [F4K], the protein stability index stood at 2.12.

For the variant NIPWFPDLQITDQVALLRLTWSEL [F4W], the protein stability index was 1.44.

As to NIPMFPDLQITDQVALLRLTWSEL [F4M], the protein stability index came out at 2.26.

With NIPFFGDLQITDQVALLRLTWSEL [P6G], the protein stability index amounted to 3.94.

As to QIPFFPDLQITDQVALLRLTWSEL [N1Q], the protein stability index was found to be 1.1.

With WIPFFPDLQITDQVALLRLTWSEL [N1W], the protein stability index turned out to be 2.72.

NIPFFPDLQITDDVALLRLTWSEL [Q13D]: the protein stability index came to 1.85.

On to NIPFFPDLQITDMVALLRLTWSEL [Q13M], for which the protein stability index came out at 4.27.

On to NIPFFPDLQITDFVALLRLTWSEL [Q13F], for which the protein stability index was 1.69.

NIPFFPDLQITDQVALLRLLWSEL [T20L]: the protein stability index worked out at 2.23.

As to NIPFFPDLQITDQVALLRLYWSEL [T20Y], the protein stability index came out at 2.69.

On to NIPFFPDLQITDQVALLRLRWSEL [T20R], for which the protein stability index is 2.21.

On to NIPFFPDLQITDQVALLRLNWSEL [T20N], for which the protein stability index stood at 1.56.

As to NIPFFPDLQITDQVALLRLIWSEL [T20I], the protein stability index was determined as 4.49.

NIPFFPDLQITDQVALLRLTWSIL [E23I]: the protein stability index was 2.96.

NIPFFPDLQITDQVALLRLTWSSL [E23S]: the protein stability index came out at 2.97.

As to NIPFFPDLQITDQVAKLRLTWSEL [L16K], the protein stability index was found to be 1.61.

As for NIPFFPDLQITDQVASLRLTWSEL [L16S], the protein stability index amounted to 2.1.

On to NIPFFPDLQITDQVAGLRLTWSEL [L16G], for which the protein stability index is 2.02.

As for NIPFFPDLQITDQVACLRLTWSEL [L16C], the protein stability index worked out at 2.65.

As for NIPFFPDLQITDQVALLRLTWSED [L24D], the protein stability index worked out at 2.11.

As to NIPFFPDLQITDQVALLRLTWSES [L24S], the protein stability index was determined as 1.9.

On to NIPFFPDLLITDQVALLRLTWSEL [Q9L], for which the protein stability index came out at 3.06.

In the case of NIPFFPDLHITDQVALLRLTWSEL [Q9H], the protein stability index was found to be 2.84.

Consider NIPFFPDLDITDQVALLRLTWSEL [Q9D], for which the protein stability index was 2.5.

On to NIPFFPDLQITVQVALLRLTWSEL [D12V], for which the protein stability index turned out to be 4.16.

For the variant NIPFFPDLQITKQVALLRLTWSEL [D12K], the protein stability index was 3.13.

For the variant NIPFFPDLQGTDQVALLRLTWSEL [I10G], the protein stability index was determined as 1.4.

Take NIPFFPDLQTTDQVALLRLTWSEL [I10T]: the protein stability index stood at 1.72.

Regarding NIPFFPILQITDQVALLRLTWSEL [D7I], the protein stability index turned out to be 2.86.

Consider NIPFFPFLQITDQVALLRLTWSEL [D7F], for which the protein stability index stood at 2.25.

NIPFFPPLQITDQVALLRLTWSEL [D7P]: the protein stability index came out at 2.46.

On to NIPFFPDLQITDQVALERLTWSEL [L17E], for which the protein stability index is 2.26.

As for NIPFFPDLQITDQVALCRLTWSEL [L17C], the protein stability index turned out to be 1.79.

On to NIPFFPDLQITDQVALNRLTWSEL [L17N], for which the protein stability index worked out at 2.59.
